Measurements published in patent publication US20060281702A1, “Combinatorial selection of phosphorothioate aptamers for RNases” (priority 2005, published 2006).
Entries after “also recorded” stand apart in the source; their conditions may differ. Where two headings read alike, the source gives them in different places.

Key:
HIV-RT = molecular target: T1, HIV-RT (Human immunodeficiency virus type 1 group M subtype B, UniProt P04585); assay: EMSA binding to intact HIV-RT
T1 construct: The 66 kDa domain, p66, contains an RNase H domain in addition to the DNA polymerase domain; purchased Amersham Bioscience (Piscataway, N.J.)
Experimental: Electrophoresis Mobility Shift Assay (EMSA). One of the selected thioaptamers (R12-2) was used to test the specific binding to RNase H. R12-2 was labeled with fluorescein at the 5′-end by enzymatic synthesis and was incubated with increasing concentrations of HIV-RT RNase H in Tris-HCl buffer (50 mM. pH 8), MgCl2 (10 mM) and DTT (40 mM) at 37° C. for 30 minutes. The reaction mixture was loaded on an 8% native polyacrylamide gel, electrophoresed and analyzed on the Flor Chem 8800 imager (Alpha Innotech, CA). Similar experiment was performed with the E.coli RNase H, to test whether R12-2 binds to the RNase H from E.coli.
Next, the binding of R12-2 to the intact HIV-RT by EMSA methods was also determined. In FIG. 4a, the protein in the band was detected by staining the gel with Coomassie blue.

[1] = molecular target: T2, isolated domain of RNase H HIV-RT (Human immunodeficiency virus type 1 group M subtype B, UniProt P04585); assay: NMR titration of R12-2 with isolated RNase H domain; type: binding, HIV-1; settings: addition of RNase H to R12-2
T2 construct: encodes the 15 kDa RNase H domain of HIV-RT; made in house; host or cells: E. coli
Experimental: NMR Spectroscopy. Uniformly ^15N labeled RNase H and chemically synthesized R12-2 were used to monitor the binding of the R12-2 thioaptamer to the isolated domain of RNase H. The oligonucleotide concentrations were calculated from the absorbance value and using the molar absorption coefficients calculated using the nearest neighbor parameters. ^15N-HSQC spectra (26) of the isolated RNase H in the presence of 25 mM MgCl2 were acquired on Varian UnityPlus 750 MHz instrument equipped with pulse field gradients and using triple resonance probes. One dimensional proton NMR and 2D NOESY spectra (250 ms mixing time) of R12-2 thioaptamer in 95% H2O/5% D2O were collected at 750 MHz. The signals from the […] imino protons of R12-2, that are very sensitive to changes in the DNA conformation, were monitored during the titration of RNase H to the R12-2.

[2] = molecular target: T3, RNase H activity of intact HIV-RT (Human immunodeficiency virus type 1 group M subtype B, UniProt P04585); assay: HIV-RT RNase H activity assay (3H-labeled DNA:RNA hybrid); type: biochemical; settings: intact HIV-RT 0.35 μM, R12-2 0.5-2 μM, FIG. 5
T3 construct: The 66 kDa domain, p66, contains an RNase H domain in addition to the DNA polymerase domain; purchased Amersham Bioscience (Piscataway, N.J.)
Experimental: HIV-RT RNase H activity assay. A DNA:RNA heteroduplex containing radiolabeled RNA was prepared as a substrate for the RNase H. A tritium-labeled RNA molecule, the stem loop 2 of the HIV psi-RNA (25), was made by in-vitro transcription using T7 RNA polymerase with a mixture of ATP, CTP, GTP and ^3H-UTP. Transcribed RNA was purified by centrifugation using Microcon YM-3 filters, to remove NTPs and other short RNA sequences. The purified RNA was annealed with the complementary DNA strand to give the DNA:RNA hybrid where the RNA strand is ^3H-labeled. HIV-RT (0.35 μM) was incubated with R12-2 thioaptamer (0.5-2 μM) in a buffer containing Tris-HCl (50 mM, pH 8.0), MgCl2 (6 mM), DTT (10 mM) and KCl (80 mM) for 30 min at 37° C. To this mixture, labeled DNA-RNA hybrid (40 000 cpm) was added to a final volume of 50 μl and incubated at 37° C. for 20 min. The reaction was quenched by addition of 150 μl of 10% trichloroacetic acid and the mixture was placed on ice for 10 min. The reaction mixture was filtered, washed and the amount of radioactivity in the filtrate was measured using a scintillation counter (Beckman Coulter, CA). The amount of radioactivity in the filtrate is regarded as proportional to RNase H activity.
The ability of the thioaptamer R12-2 to inhibit RNase H activity was tested using a radio-labeled substrate of a DNA:RNA hybrid duplex, as described in Methods. […]

isolated RNase H domain = molecular target: T4, isolated RNase H domain (Human immunodeficiency virus type 1 group M subtype B, UniProt P04585); assay: RNase H activity of the isolated RNase H domain; type: biochemical, HIV
T4 construct: encodes the 15 kDa RNase H domain of HIV-RT; made in house; host or cells: E. coli

[3] = tested on: HIV-1 SF162 (R5) in U373-MAGI-CCR5 cells; assay: HIV infection of ODN-transfected U373-MAGI-CCR5 cells; type: cell-based
Source text: Viruses and cells. HIV-1 SF162-R5 is a primary isolate that uses CCR5 as a coreceptor (R5), and was obtained from the NIH AIDS Research and Reference Reagent Program. U373-MAGI-CCR5 cells have modifications of the U373 astrocytoma adherent cells that allow use for HIV transfection and infection studies. U373-MAGI-CCR5 cells express β-gal under the control of HIV LTR, which is trans-activated by the HIV Tat protein in relation to the level of virus replication. In addition, these cells express CD4 and the human chemokine receptor CCR5 on its surface, which allow infection by primary HIV strains. U373 cells are propagated in 90% DMEM, 10% fetal bovine serum, 0.2 mg/ml G418, 0.1 mg/ml hydromycin B, and 1.0 μg/ml puromycin. For transfection and infection studies, U373 cells were maintained in 90% DMEM, 10% fetal bovine serum, and 1% penicillin/streptomycin. Thioaptamer RNase H-specific R12-2, control AP-1-specific or scrambled ODNs were transfected into the cells 24 hr prior to infection using Oligofectamine liposomes, according to the manufacturer's instructions (Invitrogen).
Infection of ODN-transfected U373-MAGI-CCR5 cells. Transfected cells and control cells were infected with HIV at m.o.i. of 0.003 (which consistently gives high levels of viral production) for 2 hr. Equal volumes of medium were then added and infection was continued for 48 hr. HIV replication was quantitated in cell lysates by measurement of β-gal activity, determined by luminometry using the β-Glo kit (Promega), according to the manufacturer's guidelines. β-gal activity is expressed as relative light units (RLU). To determine HIV TCID50 in U373-MAGI-CCR5 cells, serial dilutions (10×) of SF162-R5 virus supernatant were innoculated onto a 24-well plate containing 3×10^4 U373 cells for 2 hr, then equal volumes of complete medium were added, and infection was continued for 48 hr. Cells then were lysed and assayed for HIV-directed β-gal expression, and TCID50 (50% tissue culture infective dose) was calculated from quadruplicates. The p24 antigen capture assay (Beckman-Coulter) was used to determine virus production in some studies, measured by p24 antigen concentration in the culture supernatants harvested at day 7 post-infection.

B1: R12-2: 62-mer duplex DNA thioaptamer, monothiophosphate 5′ to dA, selected against RNase H domain of HIV-RT; probably SEQ ID NOS. 1 and 2 (nucleic acid)
chain 1: AATGCTTCCACGAGCCTTTCGGGGTTGGTGTACAGTGGATGGCTGCGAGGCGGTAGTCTATTC
chain 2: GAATAGACTACCGCCTCGCAGCCATCCACTGTACACCAACCCCGAAAGGCTCGTGGAAGCAT
modifications: DNA, backbone and methylation of C not given here; duplex DNA thioaptamer, monothiophosphate 5' to dA
notes: 62-mer duplex DNA thioaptamer, monothiophosphate 5′ to dA, selected against RNase H domain of HIV-RT; 1 and 2
HIV-RT; FIG. 4A
  binding to intact HIV-RT (EMSA): is binding
HIV-RT; intact HIV-RT, EMSA bound band intensity, Hill Plot, FIG. 4B, read-out: dissociation constant Kd
  Kd: 70 nM
HIV-RT; specific binding to HIV-RT, read-out: binding constant
  Kd: 70 nM
[1]
  binding to isolated RNase H domain (NMR, imino proton signal broadening): binding
[2]
  inhibition of RNase H activity: inhibit; also recorded: shows inhibition
Isolated RNase H domain
  effect against the isolated RNase H domain: not effective
[3]; Oligofectamine transfection 24 h prior to infection, HIV-SF162 m.o.i. 0.003, compared with untransfected or OF-only cells, FIG. 6
  reduction of infection: greater than 75%
[3]; R12-2 0.05 μg/ml, inocula m.o.i. 0.05 to 0.0005, FIG. 8
  inhibition of the virus at high m.o.i.: significant inhibition
[3]; high m.o.i.
  reduction of virus production: more than 50%
[3]; m.o.i.≦0.005, AZT 10 μM, FIG. 8
  suppression of virus compared with AZT: comparable to that seen with AZT
[3]; transfected 24 hrs prior to infection with HIV SF162, 48 hrs, doses 0.03 to 2.0 μg/ml, FIG. 7, read-out: IC50 (inhibition of HIV infection)
  IC50: < 100 nM
[3]; transfected U373-MAGI-CCR5 cells, FIG. 6
  effect on HIV infection / viral production: inhibits; also recorded: markedly reduces
